Measurements reported in US20200157519A1 (IMMUNWORK, published 2020).

Target: T1, human fibrinogen (human, UniProt P02671 20-629; P02675 31-491; P02679 27-437, limits assumed)
T1 construct: Bought protein, used as the negative control antigen; also called fibrinogen from human (Sigma)
T1 sequence (looked up) 1: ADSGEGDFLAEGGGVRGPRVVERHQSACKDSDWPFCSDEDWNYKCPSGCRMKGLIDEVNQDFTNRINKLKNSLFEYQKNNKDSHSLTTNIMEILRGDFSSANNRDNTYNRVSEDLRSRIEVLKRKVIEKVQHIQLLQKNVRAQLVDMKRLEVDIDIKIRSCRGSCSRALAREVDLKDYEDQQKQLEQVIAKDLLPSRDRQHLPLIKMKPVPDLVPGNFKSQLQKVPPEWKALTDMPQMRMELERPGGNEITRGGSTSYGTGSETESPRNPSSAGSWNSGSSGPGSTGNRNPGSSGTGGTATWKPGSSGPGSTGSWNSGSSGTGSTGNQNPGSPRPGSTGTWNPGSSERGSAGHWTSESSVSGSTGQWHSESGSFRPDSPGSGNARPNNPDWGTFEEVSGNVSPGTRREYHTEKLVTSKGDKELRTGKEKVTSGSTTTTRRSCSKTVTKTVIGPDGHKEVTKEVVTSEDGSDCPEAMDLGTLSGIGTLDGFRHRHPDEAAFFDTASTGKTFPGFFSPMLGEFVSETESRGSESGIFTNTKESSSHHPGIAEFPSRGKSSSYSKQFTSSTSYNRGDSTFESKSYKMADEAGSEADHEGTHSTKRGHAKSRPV
T1 sequence (looked up) 2: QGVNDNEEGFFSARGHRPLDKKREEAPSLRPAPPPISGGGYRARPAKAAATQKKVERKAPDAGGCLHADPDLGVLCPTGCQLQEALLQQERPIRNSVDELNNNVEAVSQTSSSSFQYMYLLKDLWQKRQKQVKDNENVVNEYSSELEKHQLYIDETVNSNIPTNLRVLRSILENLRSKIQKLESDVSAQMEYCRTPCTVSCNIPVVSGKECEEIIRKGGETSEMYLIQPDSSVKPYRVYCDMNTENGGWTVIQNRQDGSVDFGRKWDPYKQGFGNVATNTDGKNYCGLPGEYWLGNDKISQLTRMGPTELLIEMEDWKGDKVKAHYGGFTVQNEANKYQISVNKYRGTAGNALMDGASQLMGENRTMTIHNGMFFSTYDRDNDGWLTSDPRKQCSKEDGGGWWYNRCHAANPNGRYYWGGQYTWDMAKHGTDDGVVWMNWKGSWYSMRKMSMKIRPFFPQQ
T1 sequence (looked up) 3: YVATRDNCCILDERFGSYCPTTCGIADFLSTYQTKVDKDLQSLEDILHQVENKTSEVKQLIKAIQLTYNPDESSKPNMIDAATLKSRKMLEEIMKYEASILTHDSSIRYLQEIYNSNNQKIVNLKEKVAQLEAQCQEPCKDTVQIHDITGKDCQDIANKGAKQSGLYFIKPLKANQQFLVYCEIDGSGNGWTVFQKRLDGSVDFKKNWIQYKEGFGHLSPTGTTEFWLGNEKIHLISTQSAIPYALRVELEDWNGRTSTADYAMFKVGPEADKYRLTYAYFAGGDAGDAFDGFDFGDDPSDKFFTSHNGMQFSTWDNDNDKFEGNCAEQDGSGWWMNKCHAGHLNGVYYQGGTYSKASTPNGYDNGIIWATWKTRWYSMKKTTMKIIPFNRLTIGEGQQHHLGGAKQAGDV
Assay: ELISA, HRP-conjugated polyclonal rabbit anti-reteplase antibody

binding result: no binding
B1: recombinant (3D5 VL-(G4S)3-VH scFv α fibrin)-reteplase polypeptide (other)
chain: DIQMTQSPSSLSASVGDRVTITCRASQDVSNNVAWYQQKPGKAPKLLIFWSPWLYSGVPSRFSGSGSGTDFTLTISSLQPEDFATYYCQQGWDSPVTFGQGTKVEIKRGSTSGSGKPGSGEGSTKGEVQLVESGGGLVQPGGSLRLSCAASGFTISDFGIHWVRQAPGKGLEWVASIWPSGGYTYYADSVKGRFTISADTSKNTAYLQMNSLRAEDTAVYYCARSWFYSWYDYWGQGTLVTVSSASGGGGSGGGGSGGGGSSYQGNSDCYFGNGSAYRGTHSLTESGASCLPWNSMILIGKVYTAQNPSAQALGLGKHNYCRNPDGDAKPWCHVLKNRRLTWEYCDVPSCSTCGLRQYSQPQFRIKGGLFADIASHPWQAAIFAKHRRSPGERFLCGGILISSCWILSAAHCFQERFPPHHLTVILGRTYRVVPGEEEQKFEVEKYIVHKEFDDDTYDNDIALLQLKSDSSRCAQESSVVRTVCLPPADLQLPDWTECELSGYGKHEALSPFYSERLKEAHVRLYPSSRCTSQHLLNRTVTDNMLCAGDTRSGGPQANLHDACQGDSGGPLVCLNDGRMTLVGIISWGLGCGQKDVPGVYTKVTNYLDWIRDNMRPA
notes: Fusion: 3D5 scFv (VL, flexible linker, VH) at the N-terminus of reteplase through a flexible linker; also called (3D5 scFv)-reteplase
